{"source": "paper PMC6478803", "target": "FleQ (Pseudomonas syringae pv. tomato DC3000) (UniProt Q884Y2)", "experiment": "EMSA", "details": "STAD: 25 mM Tris-acetate pH 8.0, 8 mM Mg-acetate, 10 mM KCl, 3.5% PEG-8000, 1 mM DTT, 10 ug/ml poly(dI-dC), 200 ug/ml BSA; 20 nM probe (Results: 1 nM); 30 min …"}
{"sequence": "GTTCGATTAATCCAGTGAGCCTTTCGGTGCAGTTGGTCTGCGCCAACGCCACTGTCGGCGCGCCGCTGAATCTGGGTGACCTCAAGGCCGGTGAACGCTATAGCATCTTGCTGGTGCCGTCCGCCACAGGCCCGCGCCTGTTGTCGGCCACGGACACACTGTCCAACTGATCGGGTTCTGTCGTCGTTATGGTATTCGCCTCGCTTGAGTTTCTGATGGTGTTCCTGCCGGCTTTTTTGCTGGCCTATGCCGCAAGCCCGGCGGCGTGGCGCAACGTCGTTCTGTTGATCGGCAGTTGG (double strand) [wssH (wssH1)]", "values": [{"measurement": "binding", "value": "no binding"}]}
